From US6858382 (GENERAL HOSPITAL, dated 2005)

Target: T1, TetR-RasV12A186 (bacterial transposon Tn10, UniProt P04483 1-207; P01112 1-189)
T1 construct: Yeast two-hybrid bait
Experiment: yeast two-bait interaction trap, TetOp-URA3 reporter (growth without uracil)
Experimental: The LexA and TetR fusion bait proteins were expressed in a yeast cell that also contained an integrated TetOp-URA3 reporter and an episomal LexAOp-lacZ reporter. Expression of baits in these "two-bait" cells was under the control of the ADH1 promoter. The TetOp-URA3 reporter was integrated into the LYS2 gene. The LexAOp-lacZ reporter, a derivative of pSH18–34, was carried on pCXW24, a 2 μm plasmid with a LYS2 marker.

T1 sequence (P04483 1-207, tags or fused parts left off): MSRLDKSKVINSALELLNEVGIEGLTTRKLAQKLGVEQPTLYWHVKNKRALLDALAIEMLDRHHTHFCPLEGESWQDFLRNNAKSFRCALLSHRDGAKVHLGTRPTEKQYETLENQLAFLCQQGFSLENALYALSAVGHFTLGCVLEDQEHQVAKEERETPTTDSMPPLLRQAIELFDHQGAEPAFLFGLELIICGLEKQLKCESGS

B1: B42-Mxi1 (other, UniProt P50539 1-228, looked up, not shown: large carriers)
chain: MERVKMINVQRLLEAAEFLERRERECEHGYASSFPSMPSPRLQHSKPPRRLSRAQKHSSGSSNTSTANRSTHNELEKNRRAHLRLCLERLKVLIPLGPDCTRHTTLGLLNKAKAHIKKLEEAERKSQHQLENLEREQRFLKWRLEQLQGPQEMERIRMDSIGSTISSDRSDSEREEIEVDVESTEFSHGEVDNISTTSISDIDDHSSLPSIGSDEGYSSASVKLSFTS
notes: Yeast two-hybrid prey, used as a positive control with Max
Question: Does B1 bind?
Answer: no binding
